Assay results from publication PMC5309781.

Legend:
[1] = molecular target: ZIKV NS1 β-ladder domain (NS1 172-352) T233A mutant (Zika virus, strain Suriname); test: AUC; sedimentation velocity, 2.95 mg/mL, 20 mM Hepes pH 7.4, 150 mM NaCl, 20 °C, 53,000 rpm, interference optics, continuous c(s) model in SEDFIT
[2] = molecular target: ZIKV NS1 β-ladder domain (NS1 172-352), strain Suriname (Zika virus, strain Suriname); test: as above

## ZIKV NS1 β-ladder domain (NS1 172-352) T233A mutant (domain or fragment)
[1]
  percent of the protein in the monomeric state: > 49%
  stoichiometry N: 2

## ZIKV NS1 β-ladder domain (NS1 172-352), strain Suriname (domain or fragment)
[2]
  percent of the protein in the monomeric state: 7.8%
  stoichiometry N: 2
